Assay results taken from PMC13083842 (2026).

T1: soluble IL-6 receptor (sIL-6R) (human (from the printed accession …, UniProt P08887 20-355))
T1 chain: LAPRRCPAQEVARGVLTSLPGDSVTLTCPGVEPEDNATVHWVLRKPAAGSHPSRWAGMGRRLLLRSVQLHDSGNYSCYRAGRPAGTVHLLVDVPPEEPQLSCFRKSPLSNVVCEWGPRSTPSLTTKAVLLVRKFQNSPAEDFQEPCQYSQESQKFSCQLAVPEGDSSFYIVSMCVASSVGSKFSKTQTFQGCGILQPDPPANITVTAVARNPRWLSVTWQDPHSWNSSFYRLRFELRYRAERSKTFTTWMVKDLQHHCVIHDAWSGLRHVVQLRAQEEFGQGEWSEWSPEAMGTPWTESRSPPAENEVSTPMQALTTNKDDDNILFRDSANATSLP


Target: T1, soluble IL-6 receptor (sIL-6R)
Experiment: SPR

Kd	Binder
0.212 nM	tocilizumab-TGN 1:10 (antibody, V domains shown, Tris-GalNAc-PEG5 (TGN) on accessible primary amines (lysines), not site-specific; coupling ratio 1:10; GPR 4.75 for the antibody | Tris-GalNAc-PEG5 (TGN) on accessible primary amines (lysines), not site-specific; coupling ratio 1:10; GPR 4.75 for the antibody) VH: QVQLQESGPGLVRPSQTLSLTCTVSGYSITSDHAWSWVRQPPGRGLEWIGYISYSGITTYNPSLKSRVTMLRDTSKNQFSLRLSSVTAADTAVYYCARSLARTTAMDYWGQGSLVTVSS VL: DIQMTQSPSSLSASVGDRVTITCRASQDISSYLNWYQQKPGKAPKLLIYYTSRLHSGVPSRFSGSGSGTDFTFTISSLQPEDIATYYCQQGNTLPYTFGQGTKVEIK
0.328 nM	tocilizumab-TGN 1:25 (antibody, V domains shown, Tris-GalNAc-PEG5 (TGN) on accessible primary amines (lysines), not site-specific; coupling ratio 1:25; GPR of 15.36 for the antibody | Tris-GalNAc-PEG5 (TGN) on accessible primary amines (lysines), not site-specific; coupling ratio 1:25; GPR of 15.36 for the antibody) VH: QVQLQESGPGLVRPSQTLSLTCTVSGYSITSDHAWSWVRQPPGRGLEWIGYISYSGITTYNPSLKSRVTMLRDTSKNQFSLRLSSVTAADTAVYYCARSLARTTAMDYWGQGSLVTVSS VL: DIQMTQSPSSLSASVGDRVTITCRASQDISSYLNWYQQKPGKAPKLLIYYTSRLHSGVPSRFSGSGSGTDFTFTISSLQPEDIATYYCQQGNTLPYTFGQGTKVEIK
0.093 nM	tocilizumab-TGN 1:5 (antibody, V domains shown, Tris-GalNAc-PEG5 (TGN) on accessible primary amines (lysines), not site-specific; coupling ratio 1:5; GPR 2.51 for the antibody | Tris-GalNAc-PEG5 (TGN) on accessible primary amines (lysines), not site-specific; coupling ratio 1:5; GPR 2.51 for the antibody) VH: QVQLQESGPGLVRPSQTLSLTCTVSGYSITSDHAWSWVRQPPGRGLEWIGYISYSGITTYNPSLKSRVTMLRDTSKNQFSLRLSSVTAADTAVYYCARSLARTTAMDYWGQGSLVTVSS VL: DIQMTQSPSSLSASVGDRVTITCRASQDISSYLNWYQQKPGKAPKLLIYYTSRLHSGVPSRFSGSGSGTDFTFTISSLQPEDIATYYCQQGNTLPYTFGQGTKVEIK
< 0.038 nM	tocilizumab-TGN 1:1 (antibody, V domains shown, Tris-GalNAc-PEG5 (TGN) on accessible primary amines (lysines), not site-specific; coupling ratio 1:1; GPR = 0.35 for the antibody | Tris-GalNAc-PEG5 (TGN) on accessible primary amines (lysines), not site-specific; coupling ratio 1:1; GPR = 0.35 for the antibody) VH: QVQLQESGPGLVRPSQTLSLTCTVSGYSITSDHAWSWVRQPPGRGLEWIGYISYSGITTYNPSLKSRVTMLRDTSKNQFSLRLSSVTAADTAVYYCARSLARTTAMDYWGQGSLVTVSS VL: DIQMTQSPSSLSASVGDRVTITCRASQDISSYLNWYQQKPGKAPKLLIYYTSRLHSGVPSRFSGSGSGTDFTFTISSLQPEDIATYYCQQGNTLPYTFGQGTKVEIK
0.068 nM	tocilizumab (antibody, V domains shown) VH: QVQLQESGPGLVRPSQTLSLTCTVSGYSITSDHAWSWVRQPPGRGLEWIGYISYSGITTYNPSLKSRVTMLRDTSKNQFSLRLSSVTAADTAVYYCARSLARTTAMDYWGQGSLVTVSS VL: DIQMTQSPSSLSASVGDRVTITCRASQDISSYLNWYQQKPGKAPKLLIYYTSRLHSGVPSRFSGSGSGTDFTFTISSLQPEDIATYYCQQGNTLPYTFGQGTKVEIK

target: T2, interleukin-6 (IL-6) (human, UniProt P05231 30-212); experiment: SPR
T2 sequence (P05231 30-212): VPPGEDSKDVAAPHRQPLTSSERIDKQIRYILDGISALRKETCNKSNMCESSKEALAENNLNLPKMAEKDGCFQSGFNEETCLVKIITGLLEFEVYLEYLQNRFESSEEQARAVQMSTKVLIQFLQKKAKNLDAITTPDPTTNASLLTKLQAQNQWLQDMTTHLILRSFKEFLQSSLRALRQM

Kd	Binder
< 0.019 nM	siltuximab-TGN 1:1 (antibody, V domains shown, Tris-GalNAc-PEG5 (TGN) on accessible primary amines (lysines), not site-specific; coupling ratio 1:1; GPR = 0.2 for the antibody | Tris-GalNAc-PEG5 (TGN) on accessible primary amines (lysines), not site-specific; coupling ratio 1:1; GPR = 0.2 for the antibody) VH: EVQLVESGGKLLKPGGSLKLSCAASGFTFSSFAMSWFRQSPEKRLEWVAEISSGGSYTYYPDTVTGRFTISRDNAKNTLYLEMSSLRSEDTAMYYCARGLWGYYALDYWGQGTSVTVSS VL: QIVLIQSPAIMSASPGEKVTMTCSASSSVSYMYWYQQKPGSSPRLLIYDTSNLASGVPVRFSGSGSGTSYSLTISRMEAEDAATYYCQQWSGYPYTFGGGTKLEIK
< 0.027 nM	siltuximab-TGN 1:5 (antibody, V domains shown, Tris-GalNAc-PEG5 (TGN) on accessible primary amines (lysines), not site-specific; coupling ratio 1:5 | Tris-GalNAc-PEG5 (TGN) on accessible primary amines (lysines), not site-specific; coupling ratio 1:5) VH: EVQLVESGGKLLKPGGSLKLSCAASGFTFSSFAMSWFRQSPEKRLEWVAEISSGGSYTYYPDTVTGRFTISRDNAKNTLYLEMSSLRSEDTAMYYCARGLWGYYALDYWGQGTSVTVSS VL: QIVLIQSPAIMSASPGEKVTMTCSASSSVSYMYWYQQKPGSSPRLLIYDTSNLASGVPVRFSGSGSGTSYSLTISRMEAEDAATYYCQQWSGYPYTFGGGTKLEIK
< 0.036 nM	siltuximab-TGN 1:10 (antibody, V domains shown, Tris-GalNAc-PEG5 (TGN) on accessible primary amines (lysines), not site-specific; coupling ratio 1:10 | Tris-GalNAc-PEG5 (TGN) on accessible primary amines (lysines), not site-specific; coupling ratio 1:10) VH: EVQLVESGGKLLKPGGSLKLSCAASGFTFSSFAMSWFRQSPEKRLEWVAEISSGGSYTYYPDTVTGRFTISRDNAKNTLYLEMSSLRSEDTAMYYCARGLWGYYALDYWGQGTSVTVSS VL: QIVLIQSPAIMSASPGEKVTMTCSASSSVSYMYWYQQKPGSSPRLLIYDTSNLASGVPVRFSGSGSGTSYSLTISRMEAEDAATYYCQQWSGYPYTFGGGTKLEIK
< 0.022 nM	siltuximab (antibody, V domains shown) VH: EVQLVESGGKLLKPGGSLKLSCAASGFTFSSFAMSWFRQSPEKRLEWVAEISSGGSYTYYPDTVTGRFTISRDNAKNTLYLEMSSLRSEDTAMYYCARGLWGYYALDYWGQGTSVTVSS VL: QIVLIQSPAIMSASPGEKVTMTCSASSSVSYMYWYQQKPGSSPRLLIYDTSNLASGVPVRFSGSGSGTSYSLTISRMEAEDAATYYCQQWSGYPYTFGGGTKLEIK

target: T2, interleukin-6 (IL-6); experiment: SPR; remark: another data set of the same source

Kd	Binder
166 nM	sIL-6R-TGN 1:1 (receptor, Tris-GalNAc-PEG5 (TGN) on accessible primary amines (lysines), not site-specific; coupling ratio 1:1; GPR could not be determined) LAPRRCPAQEVARGVLTSLPGDSVTLTCPGVEPEDNATVHWVLRKPAAGSHPSRWAGMGRRLLLRSVQLHDSGNYSCYRAGRPAGTVHLLVDVPPEEPQLSCFRKSPLSNVVCEWGPRSTPSLTTKAVLLVRKFQNSPAEDFQEPCQYSQESQKFSCQLAVPEGDSSFYIVSMCVASSVGSKFSKTQTFQGCGILQPDPPANITVTAVARNPRWLSVTWQDPHSWNSSFYRLRFELRYRAERSKTFTTWMVKDLQHHCVIHDAWSGLRHVVQLRAQEEFGQGEWSEWSPEAMGTPWTESRSPPAENEVSTPMQALTTNKDDDNILFRDSANATSLP
428 nM	sIL-6R-TGN 1:10 (receptor, Tris-GalNAc-PEG5 (TGN) on accessible primary amines (lysines), not site-specific; coupling ratio 1:10; GPR could not be determined) LAPRRCPAQEVARGVLTSLPGDSVTLTCPGVEPEDNATVHWVLRKPAAGSHPSRWAGMGRRLLLRSVQLHDSGNYSCYRAGRPAGTVHLLVDVPPEEPQLSCFRKSPLSNVVCEWGPRSTPSLTTKAVLLVRKFQNSPAEDFQEPCQYSQESQKFSCQLAVPEGDSSFYIVSMCVASSVGSKFSKTQTFQGCGILQPDPPANITVTAVARNPRWLSVTWQDPHSWNSSFYRLRFELRYRAERSKTFTTWMVKDLQHHCVIHDAWSGLRHVVQLRAQEEFGQGEWSEWSPEAMGTPWTESRSPPAENEVSTPMQALTTNKDDDNILFRDSANATSLP
230 nM	sIL-6R-TGN 1:5 (receptor, Tris-GalNAc-PEG5 (TGN) on accessible primary amines (lysines), not site-specific; coupling ratio 1:5; GPR could not be determined) LAPRRCPAQEVARGVLTSLPGDSVTLTCPGVEPEDNATVHWVLRKPAAGSHPSRWAGMGRRLLLRSVQLHDSGNYSCYRAGRPAGTVHLLVDVPPEEPQLSCFRKSPLSNVVCEWGPRSTPSLTTKAVLLVRKFQNSPAEDFQEPCQYSQESQKFSCQLAVPEGDSSFYIVSMCVASSVGSKFSKTQTFQGCGILQPDPPANITVTAVARNPRWLSVTWQDPHSWNSSFYRLRFELRYRAERSKTFTTWMVKDLQHHCVIHDAWSGLRHVVQLRAQEEFGQGEWSEWSPEAMGTPWTESRSPPAENEVSTPMQALTTNKDDDNILFRDSANATSLP
